Test results taken from US20130040894A1, “INHIBITION OR ACTIVATION OF SERINE/THREONINE ULK3 KINASE ACTIVITY” (TALLINN UNIVERSITY OF TECHNOLOGY, priority 2009, published 2013).

Experiments:
[1] = system: GLI-dependent firefly luciferase activity in Shh-LIGHT2 cells; assay: GLI-dependent luciferase assay in Shh-L2 cells; type: cell-based, mouse
Protocol: Cells were transfected by the expression constructs or respective empty vectors using Polyethylenimine transfection agent (PEI) (Inbio) and as described in [28]. We used 0.25 μg of cDNA per 1 cm^2 of plate surface area for transfections. After 3 h of transfection HEK293, NIH3T3 and Cos1 cells were propagated in the normal growth medium for 48 h. Prior the further analysis the cells were washed twice with PBS. Post-transfectional Shh-L2 cells were grown in the normal growth medium for 24 h and for additional 24 h in the Light medium containing 0.25% FBS, washed once with PBS, lysed in Passive Lysis Buffer (Promega, Madison Wis., USA) (70 ul per well of 24-well plate format) and subjected to luciferase assay.
Luciferase assay was performed as previously described. Briefly, firefly luciferase activity of 12 μl of the Shh-L2 cells lysate was measured using Luciferase Assay Kit (Promega) and galactosidase activity was quantified using Galacto-LightPlus kit (Tropix, Bedford Mass., USA) according to the manufacturer's instructions. Chemiluminicence was measured using Ascent FL Fluoroscan (Thermo Electron Corporation, Waltham Mass., USA) according to the manufacturer's instructions.
We cotransfected the constructs together with GLI-expressing plasmids (or respective empty vector) into Shh-L2 cells and assessed their effect on GLI-dependent firefly luciferase activity. The obtained data was normalized with β-galactosidase values. […] It was able to stimulate the luciferase activity 3.8 times and enhanced the transcriptional activity of over expressed GLI1 and GLI2 approximately 2 and 3.2 times, respectively. The potency of STK36 in the assay was much lower.
In order to examine if the kinase activity of ULK3 is required for the luciferase reporter activation we tested the supposed kinase-deficient variants of ULK3, ULK3(K44R) and ULK3(K139R) in the same assay. […] We also tested the effect of ULK3 and the mutants on the luciferase reporter when the SHH pathway was activated by cotransfection with pShhN (plasmid expressing biologically active part of SHH).

[2] = target: T1, FLAG-tagged GLI2, P10070
T1 chain: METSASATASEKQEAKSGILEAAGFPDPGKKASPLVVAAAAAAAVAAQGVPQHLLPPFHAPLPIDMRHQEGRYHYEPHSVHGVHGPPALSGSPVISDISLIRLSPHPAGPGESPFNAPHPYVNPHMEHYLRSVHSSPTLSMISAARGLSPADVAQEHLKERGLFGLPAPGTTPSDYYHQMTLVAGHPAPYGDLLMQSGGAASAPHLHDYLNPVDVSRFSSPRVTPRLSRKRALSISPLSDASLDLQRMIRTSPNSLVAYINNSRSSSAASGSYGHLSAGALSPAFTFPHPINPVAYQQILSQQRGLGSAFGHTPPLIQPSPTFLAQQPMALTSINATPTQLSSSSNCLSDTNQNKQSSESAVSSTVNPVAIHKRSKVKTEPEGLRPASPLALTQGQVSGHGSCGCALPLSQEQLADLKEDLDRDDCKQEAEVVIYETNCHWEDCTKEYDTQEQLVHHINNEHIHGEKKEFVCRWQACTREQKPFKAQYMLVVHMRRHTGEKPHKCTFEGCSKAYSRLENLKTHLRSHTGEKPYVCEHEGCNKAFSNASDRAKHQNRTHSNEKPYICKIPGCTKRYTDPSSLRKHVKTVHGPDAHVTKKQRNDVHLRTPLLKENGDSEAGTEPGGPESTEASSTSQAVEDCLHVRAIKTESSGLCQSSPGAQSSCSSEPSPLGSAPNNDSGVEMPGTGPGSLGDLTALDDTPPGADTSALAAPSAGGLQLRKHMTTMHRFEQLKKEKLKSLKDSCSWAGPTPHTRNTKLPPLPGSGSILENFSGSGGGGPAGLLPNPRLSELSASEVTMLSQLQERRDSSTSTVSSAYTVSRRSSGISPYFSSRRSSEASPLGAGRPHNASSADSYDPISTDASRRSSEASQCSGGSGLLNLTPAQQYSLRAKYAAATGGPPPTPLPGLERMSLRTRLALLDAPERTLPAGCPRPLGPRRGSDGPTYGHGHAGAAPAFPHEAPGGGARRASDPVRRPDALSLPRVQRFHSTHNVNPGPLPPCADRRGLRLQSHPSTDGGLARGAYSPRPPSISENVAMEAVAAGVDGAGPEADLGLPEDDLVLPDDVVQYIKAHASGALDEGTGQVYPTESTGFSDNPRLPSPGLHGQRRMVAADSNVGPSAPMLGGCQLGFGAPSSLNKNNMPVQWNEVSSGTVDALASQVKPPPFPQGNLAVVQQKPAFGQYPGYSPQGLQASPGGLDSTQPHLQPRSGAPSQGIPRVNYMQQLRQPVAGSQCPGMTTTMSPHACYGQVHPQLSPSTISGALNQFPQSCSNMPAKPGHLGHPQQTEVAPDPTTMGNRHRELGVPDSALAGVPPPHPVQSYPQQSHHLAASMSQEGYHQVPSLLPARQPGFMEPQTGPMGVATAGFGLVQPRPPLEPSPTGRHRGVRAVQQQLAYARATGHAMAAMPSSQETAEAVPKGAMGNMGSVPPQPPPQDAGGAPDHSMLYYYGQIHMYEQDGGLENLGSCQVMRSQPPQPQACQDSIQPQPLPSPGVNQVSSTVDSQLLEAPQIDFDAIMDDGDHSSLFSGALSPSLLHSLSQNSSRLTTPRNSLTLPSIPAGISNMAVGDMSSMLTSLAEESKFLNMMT

[3] = system: ULK3; assay: In vitro kinase assay, autophosphorylation; type: biochemical, human; conditions: FLAG-tagged protein immunopurified from HEK293 cells, γ-P32-ATP
Protocol: (§1) HEK293 cells were transfected with 13.5 μg of FLAG-tagged constructs expressed GLI1, GLI2, GLI3, ULK3, ULK3(K44R), ULK3(K139R) or FLAG-CMV-4 empty vector on 10 cm plates. The cells were lysed with 0.5 ml of Lysis Buffer (50 mM Tris HCl, pH 7.4, 150 mM NaCl, 1 mM EDTA, 1% Triton X-100) containing protease inhibitor cocktail (PIC) (Roche Applied Science). The lysates were centrifuged for 15 min at 4° C. and 15000 g, and the supernatants were used for immunoprecipitation (IP). IP was performed using anti-FLAG-M2 affinity gel (Sigma-Aldrich) in batch format according to the manufacture's instructions. Immune complexes were washed three times with 500 μl of Kinase Buffer (KB) (50 mM HEPES, pH 7.4, 20 mM MgCl2, 25 μM ATP) and resuspended in 12.5 μl of KB. One fifth of the immuno-complexes was subjected to WB and the rest was used for the kinase assay.
(§2) Kinase reactions were carried out in KB in a total volume of 20 μl of in the presence of 1 μCi of [γ-^32P]ATP per reaction. We used 1 μl of the immunoprecipitated ULK3, ULK3(K44R) or ULK3(K139R) mixed with 5 μl of the GLI-M2 immunocomplexes or 5 μl of bacterially expressed and purified His-GLI1 fragments. Kinase reactions were held at 30° C. for 30 min and terminated by adding of 5 μl of 4× Laemmli Sample Buffer. Proteins were resolved by SDS-PAGE. The gel was dried at 80° C. for 2 h, and autoradiography was performed using Bio-Rad Personal Molecular Imager FX.
To test if ULK3 has an autophosphorylation activity, we expressed FLAG-tagged wild-type ULK3 and mutants ULK3(K44R) and ULK3(K139R) in HEK293 cells, immunopurified and subjected to in vitro kinase assay in the presence of γ-P^32-ATP.

[4] = system: GLI2; assay: In vitro kinase assay, phosphorylation of GLI2; type: biochemical; conditions: FLAG-tagged GLI2 immunoprecipitated from HEK293 cells
Protocol: as §1
as §2, with “The gel was dried at 80° C. for 2 h, and autoradiography was performed using Bio-Rad Personal Molecular Imager FX.” left out

B1: FLAG-tagged ULK3(K44R) (protein)
chain: MAGPGWGPPRLDGFILTERLGSGTYATVYKAYAKKDTREVVAIRCVAKKSLNKASVENLLTEIEILKGIRHPHIVQLKDFQWDSDNIYLIMEFCAGGDLSRFIHTRRILPEKVARVFMQQLASALQFLHERNISHLDLKPQNILLSSLEKPHLKLADFGFAQHMSPWDEKHVLRGSPLYMAPEMVCQRQYDARVDLWSMGVILYEALFGQPPFASRSFSELEEKIRSNRVIELPLRPLLSRDCRDLLQRLLERDPSRRISFQDFFAHPWVDLEHMPSGESLGRATALVVQAVKKDQEGDSAAALSLYCKALDFFVPALHYEVDAQRKEAIKAKVGQYVSRAEELKAIVSSSNQALLRQGTSARDLLREMARDKPRLLAALEVASAAMAKEEAAGGEQDALDLYQHSLGELLLLLAAEPPGRRRELLHTEVQNLMARAEYLKEQVKMRESRWEADTLDKEGLSESVRSSCTLQ
[1]; cotransfected with GLI1, Shh-L2 cells
  enhancement of transcriptional activity of overexpressed GLI1: neither of the mutants had an effect
[1]; cotransfected with GLI2, Shh-L2 cells
  enhancement of transcriptional activity of overexpressed GLI2: some residual activity
[1]; cotransfection with pShhN, Shh-L2 cells
  induction of luciferase activity with activated SHH pathway: 1.7 times
[2]
  in vitro kinase assay, phosphorylation signal (32P autoradiography): The mutant ULK3(K44R) could slightly phosphorylate GLI2 (data not shown)
[3]
  autophosphorylation activity: reduced efficiency in autophosphorylation
[4]
  phosphorylation of GLI2: slightly phosphorylate
